Measurements taken from PMC2916701 (Molecular cell, 2010).
“And” between values parts separate entries of the source, which are not always exact repeats. Identical values can stand only once.

B1: hyperphosphorylated Cdc15-TAP (natural protein, S. pombe, UniProt Q09822 1-927, looked up)
chain: MEVNGVSQSEAAPYVTKSSVKFRDNFWGSEDAGMDALMSRTKSSLSVLESIDEFYAKRASIEREYASKLQELAASSADIPEVGSTLNNILSMRTETGSMAKAHEEVSQQINTELRNKIREYIDQTEQQKVVAANAIEELYQKKTALEIDLSEKKDAYEYSCNKLNSYMRQTKKMTGRELDKYNLKIRQAALAVKKMDAEYRETNELLLTVTREWIDRWTEVCDAFQHIEEYRLEFLKTNMWAYANIISTACVKDDESCEKIRLTLENTNIDEDITQMIQNEGTGTTIPPLPEFNDYFKENGLNYDIDQLISKAPSYPYSSSRPSASASLASSPTRSAFRPKTSETVSSEVVSSPPTSPLHSPVKPVSNEQVEQVTEVELSIPVPSIQEAESQKPVLTGSSMRRPSVTSPTFEVAARPLTSMDVRSSHNAETEVQAIPAATDISPEVKEGKNSENAITKDNDDIILSSQLQPTATGSRSSRLSFSRHGHGSQTSLGSIKRKSIMERMGRPTSPFMGSSFSNMGSRSTSPTKEGFASNQHATGASVQSDELEDIDPRANVVLNVGPNMLSVGEAPVESTSKEEDKDVPDPIANAMAELSSSMRRRQSTSVDDEAPVSLSKTSSSTRLNGLGYHSRNTSIASDIDGVPKKSTLGAPPAAHTSAQMQRMSNSFASQTKQVFGEQRTENSARESLRHSRSNMSRSPSPMLSRRSSTLRPSFERSASSLSVRQSDVVSPAPSTRARGQSVSGQQRPSSSMSLYGEYNKSQPQLSMQRSVSPNPLGPNRRSSSVLQSQKSTSSNTSNRNNGGYSGSRPSSEMGHRYGSMSGRSMRQVSQRSTSRARSPEPTNRNSVQSKNVDPRATFTAEGEPILGYVIALYDYQAQIPEEISFQKGDTLMVLRTQEDGWWDGEIINVPNSKRGLFPSNFVQTV
modifications: hyperphosphorylated at many sites (sites not given; Supp. Table 1)
B2: His6-Cdc15(F-BAR) (amino acids 19-295) (domain or fragment, S. pombe, UniProt Q09822 19-295, looked up)
chain: SVKFRDNFWGSEDAGMDALMSRTKSSLSVLESIDEFYAKRASIEREYASKLQELAASSADIPEVGSTLNNILSMRTETGSMAKAHEEVSQQINTELRNKIREYIDQTEQQKVVAANAIEELYQKKTALEIDLSEKKDAYEYSCNKLNSYMRQTKKMTGRELDKYNLKIRQAALAVKKMDAEYRETNELLLTVTREWIDRWTEVCDAFQHIEEYRLEFLKTNMWAYANIISTACVKDDESCEKIRLTLENTNIDEDITQMIQNEGTGTTIPPLPEFND

Assays:
AUC = biological target: the molecule itself; experiment: AUC
[1] = biological target: the molecule itself; experiment: negative stain electron microscopy

| Protein | stoichiometry N (AUC) | binding result [1] |
| --- | --- | --- |
| B1 | 2 and 4 |  |
| B2 |  | binds |
